Test results taken from patent publication US20140220040A1.

Molecular target: Human LRP6-Fc (R&D Systems), recombinant human LRP6 containing the complete extracellular domain (human) (UniProt O75581)
Experiment: SPR (BIAcore), mAb captured on anti-mouse chip, Fc-antigen injected, 1:1 model

Chain of Human LRP6-Fc (R&D Systems), recombinant human LRP6 containing the complete extracellular domain (human) (O75581 20-1370 V1062I): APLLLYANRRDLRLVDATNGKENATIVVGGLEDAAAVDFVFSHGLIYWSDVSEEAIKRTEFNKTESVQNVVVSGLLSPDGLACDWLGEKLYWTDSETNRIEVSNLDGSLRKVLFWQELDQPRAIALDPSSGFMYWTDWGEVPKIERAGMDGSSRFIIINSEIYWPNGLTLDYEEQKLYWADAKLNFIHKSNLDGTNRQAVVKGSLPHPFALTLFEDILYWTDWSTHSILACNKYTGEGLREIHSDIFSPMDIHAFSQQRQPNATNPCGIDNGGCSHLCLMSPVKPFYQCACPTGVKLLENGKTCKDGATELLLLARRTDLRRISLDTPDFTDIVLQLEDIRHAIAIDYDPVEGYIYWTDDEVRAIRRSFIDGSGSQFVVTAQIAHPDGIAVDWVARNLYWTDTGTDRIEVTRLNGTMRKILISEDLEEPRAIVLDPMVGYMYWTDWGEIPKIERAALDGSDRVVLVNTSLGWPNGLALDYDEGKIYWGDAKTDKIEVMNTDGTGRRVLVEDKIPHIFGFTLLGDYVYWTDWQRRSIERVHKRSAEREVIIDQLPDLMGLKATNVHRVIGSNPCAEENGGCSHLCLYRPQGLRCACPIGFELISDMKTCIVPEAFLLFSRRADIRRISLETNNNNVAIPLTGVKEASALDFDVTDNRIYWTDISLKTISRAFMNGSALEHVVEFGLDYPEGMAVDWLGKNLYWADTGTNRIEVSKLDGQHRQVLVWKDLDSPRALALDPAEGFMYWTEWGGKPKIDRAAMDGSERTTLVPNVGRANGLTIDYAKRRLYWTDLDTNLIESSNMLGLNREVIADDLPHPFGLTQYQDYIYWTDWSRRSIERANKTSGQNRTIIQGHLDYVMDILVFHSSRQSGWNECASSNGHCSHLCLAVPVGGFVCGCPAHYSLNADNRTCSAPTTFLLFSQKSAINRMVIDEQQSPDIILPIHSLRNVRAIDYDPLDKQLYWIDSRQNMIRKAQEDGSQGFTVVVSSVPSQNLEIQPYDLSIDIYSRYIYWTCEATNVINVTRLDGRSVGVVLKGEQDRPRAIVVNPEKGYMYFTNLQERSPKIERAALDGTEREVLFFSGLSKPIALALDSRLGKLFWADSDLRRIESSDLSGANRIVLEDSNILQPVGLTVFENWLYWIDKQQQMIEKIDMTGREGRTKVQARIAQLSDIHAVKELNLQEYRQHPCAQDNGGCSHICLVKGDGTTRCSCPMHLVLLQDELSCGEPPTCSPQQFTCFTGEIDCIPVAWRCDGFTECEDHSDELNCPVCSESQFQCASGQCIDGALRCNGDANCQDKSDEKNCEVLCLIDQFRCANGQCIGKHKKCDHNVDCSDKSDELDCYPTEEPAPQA

B1: anti-LRP6 monoclonal antibody 995.5 (antibody, part only; not given: light chain, not determined, V domains shown, part only)
VH: RMKVLSLLYLLTAIPGILSDVQVQESGPGLVKPSQSLSLTCSVTGYSITSGYYWNWIRQFPGNKLEWMGYISYDGRNNYNPSLKNRISITRDTSKNQFFLKLNSVTTEDTATYYCARENSNYPYYYDYWGQGTTLTVSSAKT
  Kd: 1.09 nM
  koff: 4.51e-05 s⁻¹
  kon: 41400 M⁻¹ s⁻¹

B2: anti-LRP6 monoclonal antibody 993.9 (antibody, part only; not given: light chain, not determined, V domains shown, part only)
VH: DVQVQESGPGLVKPSQSLSLTCSVTGYSITSGYYWNWIRQFPGNKLEWMGYISYDGRNNYNPSLKNRISITRDTSKNQFFLKLNSVTTEDTATYYCARENSNYPYYYDYWGQGTTLTVSSAKT
  Kd: 2.05 nM
  koff: 5.7e-05 s⁻¹
  kon: 28000 M⁻¹ s⁻¹
